Where “and” joins values, the source holds several entries; their conditions need not be identical. Equal values may be shown once.

This data set deals with Bacillus subtilis DB104 (SP-AmyQ fusion secretion). The data set can be described thus: AmyQ secretion efficiency, weighted average sort bin (1 = best secretion, 10 = worst) (bin number (weighted average, 1-10)); higher = lower secretion efficiency. In outline: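 B. subtilis DB104 library expressing mature AmyQ fused to designed signal peptides (amyE-integrated) was encapsulated at about 0.3 cells per ~65 nL alginate bead with fluorescein-starch, grown about 13 h at room temperature and nile red stained. Occupied beads were sorted by large-particle flow cytometry into 10 equally populated bins by green/red fluorescence ratio, and each bin's amplicons were Illumina-sequenced. Secretion score is the read-frequency-weighted average bin number, normalised to beads per bin, excluding low-abundance sequences.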

MKKAFLVFLSVVLVTTVFLFVKQQESVAQAKQL: the AmyQ secretion efficiency was found to be 2.31.

The sequence MMGVLLSALLLLLFAFEPSASGKKL showed an AmyQ secretion efficiency of 6.16.

On to MKRFSTAYLLLGILCSAAVFLIGAPSSALGAEV, for which the AmyQ secretion efficiency amounted to 3.5.

Sequence MTKLKMLSMLTVMIASLFIFSSQTLAVQY yielded an AmyQ secretion efficiency of 2.28.

Consider MKRFSTAYTTGGILCSAAVFLIGAPSRALGAEV, for which the AmyQ secretion efficiency worked out at 8.46.

In turn, MIVIILLFISIIVFLVVTIQPQPS registered an AmyQ secretion efficiency of 8.71.

MKKMKKSGKRFLLALTIHVGEASAVIV: the AmyQ secretion efficiency was found to be 6.51.

Take MKKVMLATALFLGLTPAGVNAADL: the AmyQ secretion efficiency was 4.08.

In turn, MKSKGSIMACLILFSFTITTFINEISAFSN yielded an AmyQ secretion efficiency of 6.8.

The sequence MKRKKLLSTLLIGIMLLTFAPSAFAKQD showed an AmyQ secretion efficiency of 1.35.

Sequence MKKQKKIAGVLTVAAAAMTAKMYATAKGN returned an AmyQ secretion efficiency of 7.17.

In turn, MKQFAITLSVLCALILLVPTLLVIPFFHNKEAGASV returned an AmyQ secretion efficiency of 6.58.

MKWMCSICCAAVLLAGESAQAEAV had an AmyQ secretion efficiency of 3.16.

As to MKRRTRYKKQVVGILLSLAFVLFVFSFSERHE, the AmyQ secretion efficiency stood at 6.68.

As to MKSKGSIMACLILFSFTITTFINTETSSVFTPISAFSN, the AmyQ secretion efficiency is 6.5.

MKRFILVLSFLSIIVAYPIQINASPM came in with an AmyQ secretion efficiency of 2.47.

Take MKKSQYFIVFICFFVLFSVHPIAAACADS: the AmyQ secretion efficiency was found to be 4.69.

Regarding MRKYTVIASILLSFLSVLSGGHHESKAFPR, the AmyQ secretion efficiency was 4.58.

Take MKWMCSICCAAVLLAGGASFFGTFGPGTTAQAEAV: the AmyQ secretion efficiency came to 4.06.

Turning to MLKKKWMVGLLAGCLAAGGFSYNGSFVAFATEN, the AmyQ secretion efficiency was 3.96.

The sequence MRSKKLWISLLFALTLIFTMAFSNMSAQHAGK returned an AmyQ secretion efficiency of 6.69.

MKRFILVLSFLSIIVKKRIQTNASPM: the AmyQ secretion efficiency turned out to be 7.76.

Take MRRKRFTALAVFLLCFMPAAKIEHTQASLL: the AmyQ secretion efficiency was determined as 5.25.

Sequence MKKCLLFLTTIALILSLSTNAFAEDE showed an AmyQ secretion efficiency of 4.16.

The sequence MKVCQKSIKRFLVSLIIGTFVISVPFMANAQSD had an AmyQ secretion efficiency of 1.93.

MKRFSTAYLLLGILCSAAVFLIGAPSRALGAPD had an AmyQ secretion efficiency of 2.52.

In the case of MKKKLAAGLTASAIVGTTLVVTPPTAPGGAEAATI, the AmyQ secretion efficiency came to 6.5.

As for MFNRLRVCFLAALIMAFTLPNSVYAQKP, the AmyQ secretion efficiency was 2.

MKKRLIQVMIMFTLLLRRKRRRRADAADS came in with an AmyQ secretion efficiency of 8.45.

MKLAKRVSALTPSTTLAITAKGKEL: the AmyQ secretion efficiency was found to be 7.3.

Take MRFTKVVGFLSVLGLAAVFPLTASSAAQAEKA: the AmyQ secretion efficiency was 1.25.

For MRKKTKNRLISSVLSTVVISSLLFPGAAGASEE, the AmyQ secretion efficiency is 2.7.

With MKRLLSTLLIGIMLLTFAPSPAATVFPVAFAKQD, the AmyQ secretion efficiency came out at 1.66.

The sequence MLKKKWMVGLLAGCLAAGGFSYNAFKTEN registered an AmyQ secretion efficiency of 5.95.

Sequence MKLSVKIAGVLTVAAAAMTAKMYATEKGN displayed an AmyQ secretion efficiency of 4.74.

For the sequence MRKKCSTCQWRLVLLLSCLSGKSAYAATS, the AmyQ secretion efficiency was 5.76.

Sequence MLCVMMLLFSAIASFPVSAQMKDQ displayed an AmyQ secretion efficiency of 6.09.

In turn, MTMLRKIIGWILLLCPLFAFTVIASGKEV returned an AmyQ secretion efficiency of 8.01.

On to MLFKKWMVGLLAGCLAAGGFSYNAFATEN, for which the AmyQ secretion efficiency stood at 4.2.

The sequence MKKSMLAAAVLLSLGLVFGFSYGAGHVAEAKTK displayed an AmyQ secretion efficiency of 2.84.

The sequence MKRIRIPMTLALGAALTIAPLLSFASAEEN yielded an AmyQ secretion efficiency of 4.21.

On to MKSLPYTIALLFCGLIIVSMAAKGKKR, for which the AmyQ secretion efficiency is 7.49.

Regarding MKQGKFSVKKKRKRMLTLVVAPKEKAEAASS, the AmyQ secretion efficiency worked out at 5.83.

As to MKRFSTAYLLLGILCSAAVFLIGAPSRALGKKK, the AmyQ secretion efficiency was 7.04.

The sequence MRKKKRRVLLLLVTGLFMSLFAVTATASAQTG registered an AmyQ secretion efficiency of 1.06.

MFMMLGSLLITAGILVFFAVVVKDVFAAGL had an AmyQ secretion efficiency of 6.51.

Sequence MKKKRKKFVAVAALSTTAFGAHASAKEI returned an AmyQ secretion efficiency of 6.1.

As to MKKWIYVVLVLSIAGIGGFSVHNASS, the AmyQ secretion efficiency was 5.06.

Regarding MLKKIALTLCPAIVGSLLFFTAPASSHVS, the AmyQ secretion efficiency was 4.06.

Take MRMLWRSLALCGLALTLAPCAQGAEP: the AmyQ secretion efficiency is 2.58.

Consider MKKRFFGPIILAFILFLFSSLAGAIAIPS, for which the AmyQ secretion efficiency worked out at 6.16.

MKKIGLLFMLCLAALKKRRFPAQQADAAEA: the AmyQ secretion efficiency stood at 7.17.

As to MNLRKILLSSALSLGMLVSAAPVLVTSS, the AmyQ secretion efficiency was determined as 6.87.

As to MRMLWRSLALCGLALTLAPCAQAATP, the AmyQ secretion efficiency worked out at 2.06.

In turn, MRKKRVITCVMAASLTLGSLLPAGYATAAPR yielded an AmyQ secretion efficiency of 1.69.

Turning to MLKKKWMVGLLAGCLAAGGFSYNWFATEN, the AmyQ secretion efficiency was found to be 6.53.

Take MKRQSQTLSFLSIIVAYPIQTNASPM: the AmyQ secretion efficiency came out at 8.43.

MKKGIIRFLLVSFVLFFALSTGITGVQDAPA came in with an AmyQ secretion efficiency of 6.75.

With MLTKRLLTIYIMLLGLIRRKPGAAQAEEK, the AmyQ secretion efficiency came to 7.69.

MGLGKKLSVAVAASFMSLSPGVQAAEG showed an AmyQ secretion efficiency of 1.73.

With MKVLLSALLLLLFAFFTSFTLTLFEPSASGKKL, the AmyQ secretion efficiency is 7.36.

MKWMCKRCCRRKRLAGGAAQAEAV yielded an AmyQ secretion efficiency of 7.06.

MKKWLIIAVSLAIAIVLFMYTKGEAKAAED came in with an AmyQ secretion efficiency of 2.66.

MKSKGSIMACLILFSFTITTFINTETISDFSN came in with an AmyQ secretion efficiency of 6.98.

MFKKHTISLLIIFLLASAVLAKPIEADEE displayed an AmyQ secretion efficiency of 3.49.

The sequence MKRKLLSSLAISALSLGLLVSAPTASFAATR showed an AmyQ secretion efficiency of 2.21.

Take MKKLLAAGIIGLLTVSIASPSFHAEK: the AmyQ secretion efficiency is 6.26.

Sequence MKWMCSICCAAVLLAGGAQQAEAV returned an AmyQ secretion efficiency of 2.93.

As for MFNLQVMLALTAAAGLGLTALHSAPAAKAAPL, the AmyQ secretion efficiency was 3.11.

For MRPVFPLILSAVLFLSCFFGARQTEASISKR, the AmyQ secretion efficiency was determined as 3.

With MKRIRIPMTLKKGAALTIAPLSFASAEEN, the AmyQ secretion efficiency turned out to be 7.82.

MKRTWNVCLTALLSVLLVAGSVPFHAEAAPK displayed an AmyQ secretion efficiency of 2.29.

Turning to MLKKKWMVGLLAGCLAAGGFSYNDFATEN, the AmyQ secretion efficiency came out at 5.83.

MMIKQCVICLSLLVFGTTKAHAEET displayed an AmyQ secretion efficiency of 2.63.

For the sequence MKMKSGMEQAVSVLLLLSRLPVQASLTSE, the AmyQ secretion efficiency was 7.57 and 7.03.

Sequence MTMLRKKTGWILLLCIIPLFAFTVIASGKEV came in with an AmyQ secretion efficiency of 3.88.

MIAYFGKCLLLVTIMFLGVLFGMQQMNHG: the AmyQ secretion efficiency stood at 5.05.

The sequence MLKKKWMVGLLAGCLAAGGFSYNAFVTEN gave an AmyQ secretion efficiency of 7.21.

MKKAAAVLLSLGLVFGFSYGAGHVAEYKTK had an AmyQ secretion efficiency of 6.37.

Sequence MKKLLAAGIIGLLTVTVFVTSIASPSFAAEK came in with an AmyQ secretion efficiency of 2.51.

As to MKKIMSAFVGMVLLTIFCFSPQASAAYD, the AmyQ secretion efficiency is 4.89 and 4.8.

For MTKLKMLSMLTVMIASLFIFSSQILAVQY, the AmyQ secretion efficiency was 6.11.

For “MTKKAWFLPLVCVLLIVIALIFSFASGWLAPAASASAQTT”, the AmyQ secretion efficiency came to 2.12.

Sequence MKRKKKRLCVMMLLFSAIASFPVSAQAKDQ yielded an AmyQ secretion efficiency of 3.18.

MKRLLSTLLIGIMLLTFAPSAFAKKR: the AmyQ secretion efficiency amounted to 2.03.

Take MVKKWLIQFAVMLSVLSTFTYSASAVGV: the AmyQ secretion efficiency was 3.04 and 1.99.

MKKIWIGMLAAAVLLLRKRKKKSLADAA displayed an AmyQ secretion efficiency of 6.58.

The sequence MRKYTVIASILLSFLSVLSGGHHEVATSKAFPV returned an AmyQ secretion efficiency of 3.74.

The sequence MAIIIAIIAAVIVIAALITFNVNNASPG showed an AmyQ secretion efficiency of 7.54.

The sequence MKKRRRRIAMLILAGIALFVFISPLKSHKT gave an AmyQ secretion efficiency of 6.26.

With MHLITAAGAVCLAVVLIAGCRFNEDQHQAEGENT, the AmyQ secretion efficiency turned out to be 5.34.

As to MKSKGSIMACLILFSFTITTFINTETISQFSN, the AmyQ secretion efficiency is 7.33.

In turn, MKRIRIPMTLALGAALTIAPLSFSSAEEN registered an AmyQ secretion efficiency of 4.73.

For the sequence MKNMSCKLVVSVTLFFSFLTIGPLAHPQNS, the AmyQ secretion efficiency stood at 5.55.

Take MKLWMRKTLRRKKRKVTFGLVSPPAALMADKP: the AmyQ secretion efficiency stood at 7.28.

The sequence MNLRKILLSSALSLGMLEEEDEEVLATSS returned an AmyQ secretion efficiency of 4.45.

Sequence MFLRKILLSSALSLGMLVSAAPVLATSS gave an AmyQ secretion efficiency of 2.2.

MKQGKFVFLILLLMLTLVVAPKEKAEAASS yielded an AmyQ secretion efficiency of 1.74.

In turn, MGLGKKLSVAVAASFMSLSISLPGVQLAEG registered an AmyQ secretion efficiency of 4.12.

MMFMFLLCVMMLLFSAIASFPVSAQAKDQ: the AmyQ secretion efficiency was found to be 6.02.

Take MPYLKRMINFNNVLLLLVTGLFMSLFAVTATASAQTG: the AmyQ secretion efficiency turned out to be 1.05.

Regarding MFKKHTISLLIIFLLASAVLAKPIERHTV, the AmyQ secretion efficiency was 5.58.

MPIKKKVMMCLAVTLVFGSMIFITLTNSGGFKE gave an AmyQ secretion efficiency of 6.04.

Regarding MRKNRSSMSFTLILALFVLSLGLLSFMVTPVSAASK, the AmyQ secretion efficiency turned out to be 1.45.

In the case of MKQGKFSRYYKSLLMLTLVVAPKEKAEAASS, the AmyQ secretion efficiency was 6.74.

Sequence MFSRKILLSSALSFGMLISAVPALAAGT returned an AmyQ secretion efficiency of 3.61.

MKRKLLSSLAISALSLGLLVSAPTAGFAAES gave an AmyQ secretion efficiency of 3.25.

With MKRIRIPMTLALGAALTIAPLVFASAEEN, the AmyQ secretion efficiency is 4.55.

(Values after the supplement of paper PMC9942255.)
